Experimental data as given in patent US12692524B2, “Sialyltransferases and their use in producing sialylated oligosaccharides” (Chr. Hansen A/S, priority 2017, dated 2026).

Assay: In vitro sialylation of LNT by protein extracts, LST-a/-b quantified by LC-MS/MS
Type: biochemical
Conditions: for Ranking in the screening for sialylation of LNT: in words
Outline: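 E. coli BL21(DE3) crude extracts overexpressing sialyltransferases (IPTG 0.3 mM, 12–16 h at 30 °C) incubated 16 h with 5 mM LNT and 10 mM CMP-Neu5Ac in 50 mM Tris-HCl pH 7.5, 5 mM MgCl2. LST-a and LST-b measured by HILIC LC-MS/MS, MRM in ESI negative mode, against commercial standards.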

[1] = 5 mM LNT, 10 mM CMP-Neu5Ac, 16 hours, LC-MS/MS, relative quantity, n.d.: not detectable

Molecule	Relative efficacy of sialyltransferases regarding in-vitro production of sialyllacto-N-tetraoses: LST-b [1]	Ranking in the screening for sialylation of LNT	Relative efficacy of sialyltransferases regarding in-vitro production of sialyllacto-N-tetraoses: LST-a [1]
SiaT19: sialyltransferase of Photobacterium leiognathi JT-SHIZ-145, acc. BAF91416, SEQ ID NO: 30 (protein, listed as Photobacterium leiognathi) MNDNQNTVDVVVSTVNDNVIENNTYQVKPIDTPTTFDSYSWIQTCGTPILKDDEKYSLSFDFVAPELDQDEKFCFEFTGDVDGKRYVTQTNLTVVAPTLEVYVDHASLPSLQQLMKIIQQKNEYSQNERFISWGRIRLTEDNAEKLNAHIYPLAGNNTSQELVDAVIDYADSKNRLNLELNTNTGHSFRNIAPILRATSSKNNILISNINLYDDGSAEYVSLYNWKDTDNKSQKLSDSFLVLKDYLNGISSEKPNGIYSIYNWHQLYHSSYYFLRKDYLTVETKLHDLREYLGGSLKQMSWDTFSQLSKGDKELFLNIVGFDQEKLQQEYQQSELPNFVFTGTTTWAGGETKEYYAQQQVNVVNNAINETSPYYLGREHDLFFKGHPRGGIINDIILGSFNNMIDIPAKVSFEVLMMTGMLPDTVGGIASSLYFSIPAEKVSFIVFTSSDTITDREDALKSPLVQVMMTLGIVKEKDVLFWC	157	sialylate LNT most efficiently among the tested α-2,6-sialyltransferases	–
SiaT9: sialyltransferase of Vibrio sp. JT-FAJ-16, acc. BAF91160, SEQ ID NO: 2 (protein, listed as Vibrio sp.) MNNDNSTTTNNNAIEIYVDRATLPTIQQMTKIVSQKTSNKKLISWSRYPITDKSLLKKINAEFFKEQFELTESLKNIILSENIDNLIIHGNTLWSIDVVDIIKEVNLLGKNIPIELHFYDDGSAEYVRIYEFSKLPESEQKYKTSLSKNNIKFSIDGTDSFKNTIENIYGFSQLYPTTYHMLRADIFDTTLKINPLRELLSNNIKQMKWDYFKDFNYKQKDIFYSLTNFNPKEIQEDFNKNSNKNFIFIGSNSATATAEEQINIISEAKKENSSIITNSISDYDLFFKGHPSATFNEQIINAHDMIEINNKIPFEALIMTGILPDAVGGMGSSVFFSIPKEVKNKFVFYKSGTDIENNSLIQVMLKLNLINRDNIKLISDI	–	best performing α-2,3-sialyltransferases for LST-a production	8.39 × 10^3
